The values below come from article PMC10731242, “Macromolecular crowding potently stimulates DNA supercoiling activity of Mycobacterium tuberculosis DNA gyrase”.

Broadly, the Kd is the concentration at which binding is half-saturated.

What all share (details): protein: recombinant;recombinant, tags: His-TEV tag, removed by TEV protease;His-TEV tag, chain copies: 2;2, label: 3' Tamra~Q on FL1013, blunt
Data set [1] deals with T1, DNA gyrase subunit A (GyrA);DNA gyrase subunit B (GyrB) (Mycobacterium …, UniProt P9WG47;P9WG45 1-838;1-675, |). The data set can be described thus: EMSA; 2 mM Mg2+, 5% PEG400. For orientation: In EMSA bound probe runs differently from free probe, usually more slowly.
T1 sequence (P9WG47 whole entry, chain 1 of 2): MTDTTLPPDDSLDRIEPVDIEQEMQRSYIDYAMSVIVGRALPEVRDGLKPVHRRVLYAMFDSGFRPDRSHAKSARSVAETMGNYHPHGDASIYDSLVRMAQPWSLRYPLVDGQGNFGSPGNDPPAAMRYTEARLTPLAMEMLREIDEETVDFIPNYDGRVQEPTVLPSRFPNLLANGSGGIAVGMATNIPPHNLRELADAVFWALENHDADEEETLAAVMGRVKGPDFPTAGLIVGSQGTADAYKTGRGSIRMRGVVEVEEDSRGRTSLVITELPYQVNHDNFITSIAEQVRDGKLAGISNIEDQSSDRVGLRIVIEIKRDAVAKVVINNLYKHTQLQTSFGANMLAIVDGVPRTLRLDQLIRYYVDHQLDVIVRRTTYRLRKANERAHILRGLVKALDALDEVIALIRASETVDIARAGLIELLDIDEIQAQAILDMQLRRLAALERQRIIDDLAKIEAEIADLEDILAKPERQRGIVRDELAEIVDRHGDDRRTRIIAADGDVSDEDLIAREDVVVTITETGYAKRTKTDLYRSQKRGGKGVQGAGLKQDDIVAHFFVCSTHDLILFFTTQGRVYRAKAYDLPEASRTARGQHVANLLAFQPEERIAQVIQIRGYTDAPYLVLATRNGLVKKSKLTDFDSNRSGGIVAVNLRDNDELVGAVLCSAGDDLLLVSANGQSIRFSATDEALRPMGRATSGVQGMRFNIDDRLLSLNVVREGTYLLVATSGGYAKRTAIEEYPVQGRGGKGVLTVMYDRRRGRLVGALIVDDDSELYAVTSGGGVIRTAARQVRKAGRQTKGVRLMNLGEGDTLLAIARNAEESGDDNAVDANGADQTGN
T1 sequence (P9WG45 whole entry, chain 2 of 2): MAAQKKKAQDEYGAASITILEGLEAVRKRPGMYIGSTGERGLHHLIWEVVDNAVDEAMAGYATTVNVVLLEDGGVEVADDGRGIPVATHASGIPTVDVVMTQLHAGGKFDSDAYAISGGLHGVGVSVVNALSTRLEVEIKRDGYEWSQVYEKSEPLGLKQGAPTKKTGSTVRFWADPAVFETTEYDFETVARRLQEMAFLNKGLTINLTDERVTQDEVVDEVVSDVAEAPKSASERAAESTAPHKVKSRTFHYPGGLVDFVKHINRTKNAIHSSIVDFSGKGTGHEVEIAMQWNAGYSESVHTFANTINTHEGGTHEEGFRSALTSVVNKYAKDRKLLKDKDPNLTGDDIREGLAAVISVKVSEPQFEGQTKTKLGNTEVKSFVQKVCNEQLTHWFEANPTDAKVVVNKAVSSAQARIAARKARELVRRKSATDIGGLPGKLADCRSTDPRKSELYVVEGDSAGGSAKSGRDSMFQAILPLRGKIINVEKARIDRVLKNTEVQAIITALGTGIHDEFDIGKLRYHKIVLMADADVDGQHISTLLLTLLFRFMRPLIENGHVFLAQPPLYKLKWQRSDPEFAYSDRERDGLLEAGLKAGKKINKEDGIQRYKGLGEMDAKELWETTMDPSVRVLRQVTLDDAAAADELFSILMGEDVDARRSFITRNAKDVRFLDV
Data set [2] has as its target T1, DNA gyrase subunit A (GyrA);DNA gyrase …. Briefly: EMSA; 2 mM Mg2+, no crowding agent.
For data set [3] the target is unchanged. Briefly: EMSA; 2 mM Mg2+, 2 M glycine betaine.

B1: 50 bp DNA oligomer (FL1013/FL1014) (dsDNA)
DNA 1: TCAGTCCGACATCGGTCATGAATGACTATGCACGTAAACGAGATGCCAAC
DNA 2: GTTGGCATCTCGTTTACGTGCATAGTCATTCATGACCGATGTCGGACTGA
B1: the figures for the Kd in data set [1], in data set [2] and in data set [3] were 60 ± 24 nM, 94 ± 4 nM and 85 ± 6 nM, respectively.
